From the DeepSol protein solubility set

Test: soluble on expression in E. coli; label from the status in PepcDB or PDB records
In the case of “MGSSHHHHHHSSGLVPRGSHMRVAMISMHTSPLQQPGTGDSGGMNVYILSTATELAKQGIEVDIYTRATRPSQGEIVRVAENLRVINIAAGPYEGLSKEELPTQLAAFTGGMLSFTRREKVTYDLIHSHYWLSGQVGWLLRDLWRIPLIHTAHTLAAVKNSYRDDSDTPESEARRICEQQLVDNADVLAVNTQEEMQDLMHHYDADPDRISVVSPGADVELYSPGNDRATERSRRELGIPLHTKVVAFVGRLQPFKGPQVLIKAVAALFDRDPDRNLRVIICGGPSGPNATPDTYRHMAEELGVEKRIRFLDPRPPSELVAVYRAADIVAVPSFNESFGLVAMEAQASGTPVIAARVGGLPIAVAEGETGLLVDGHSPHAWADALATLLDDDETRIRMGEDAVEHARTFSWAATAAQLSSLYNDAIANENVDGETHHG”, the “soluble on expression in E. coli” value is reported as “soluble”.
In the case of “IKDPQTGAPVPLRALINNVSGYVIKTEMYTEVKNAKGEWVFKSLGKPGSMHLRPIATPYPVKEWLQPKRYKAHLMGTTYVYDFPELFRQASSSQWKNFSADVKLTDDFFISNELIEDENGELTEVEREPGANAIGMVAFKITVKTPEYPRGRQFVVVANDITFKIGSFGPQEDEFFNKVTEYARKRGIPRIYLAANSGARIGMAEEIVPLFQVAWNDAANPDKGFQYLYLTSEGMETLKKFDKENSVLTERTVINGEERFVIKTIIGSEDGLGVECLRGSGLIAGATSRAYHDIFTITLVTCRSVGIGAYLVRLGQRAIQVEGQPIILTGAPAINKMLGREVYTSNLQLGGTQIMYNNGVSHLTAVDDLAGVEKIVEWMSYVPAKRNMPVPILETKDTWDRPVDFTPTNDETYDVRWMIEGRETESGFEYGLFDKGSFFETLSGWAKGVVVGRARLGGIPLGVIGVETRTVENLIPADPANPNSAETLIQEPGQVWHPNSAFKTAQAINDFNNGEQLPMMILANWRGFSGGQRDMFNEVLKYGSFIVDALVDYKQPIIIYIPPTGELRGGSWVVVDPTINADQMEMYADVNARAGVLEPQGMVGIKFRREKLLDTMNRLDDKYRELRSQLSNKSLAPEVHQQISKQLADRERELLPIYGQISLQFADLHDRSSRMVAKGVISKELEWTEARRFFFWRLRRRLNEEYLIKRLSHQVGEASRLEKIARIRSWYPASVDHEDDRQVATWIEENYKTLDDKLKGLKLESFAQDLAKKIRSDHDNAIDGLSEVIKMLSTDDKEKLLKTLK”, the “soluble on expression in E. coli” value is reported as “soluble”.
For “MSHYLSPGAYLPHDAPMLLLEDVVSVSDDSAVCRVTVSPSGVLAPFLDPDGNLPGWFTLELMAQTVGVWSGWHRHQQGKNSIELGMILGARELLCTTGILPAGQTLTITVKLLMQDDRFGSFECSINDGEATGRINTFQPTAEELTTLFQQGAS”, the “soluble on expression in E. coli” value was “not soluble”.
In the case of “MSKLAELQAETREIIEDLLNDGSEPNALYIIEHHIAHHDFDLLEKIAVDAFKAGYEVSEAEEFKDDDGKPIFCFDIISEVELKAEIIDAQQKEILPLLEKHNGIYDGWGTYFEDPNADDDEYGDDGEFLDDEDEYGDDGEFFDDEDEEEPRVH”, the “soluble on expression in E. coli” value is reported as “not soluble”.
For “MTRYALLVRGINVGGKNKVVMAELRQELTNLGLEKVESYINSGNIFFTSIDSKAQLVEKLETFFAVHYPFIQSFSLLSLEDFEAELENLPAWWSRDLARKDFLFYTEGLDVDQVIATVESLELKDEVLYFGKLGIF”, the “soluble on expression in E. coli” value was “not soluble”.
For “MNRWQGIIKQYKKYLPVDENTPIVTLYEGNTPLIEADNLARAIGFKGKIYLKYEGLNPTGSFKDRGMTLAISKAVEAGKRAVICASTGNTSASAAAYAARAGLRAYVLLPKGAVAIGKLSQAMIYGAKVLAIQGTFDDALNIVRKIGENFPVEIVNSVNPYRIEGQKTAAFEICDTLGEAPDYHFIPVGNAGNITAYWKGFKIYYEEGKITKLPRMMGWQAEGAAPIVKGYPIKNPQTIATAIKIGNPYSWKSALKAAQESGGKIDAVSDSEILYAYKLIASTEGVFCEPASAASVAGLIKLVREGFFKGGEVVTCTLTGNGLKDPDTAIKVCEEPITVPPDFDEVVKVLGF”, the “soluble on expression in E. coli” value was “soluble”.
For “MGSDKIHHHHHHMENLIFDIGFHKGEDTLFYLLKGYRVIAVDADPDLINEWQNIFKKYIENGKLLLLNYVISDTNDVDTDFYIGPNTIWSSTKVSISSRMCCKAIKKKIKSKRLDHLFHEYGTPFYCKIDIEGNDIIALQTMEKVSEKPLYISVETECIGEDEDIAGHELDTLNALYQLGYRKFKLVDQRTLTVLDYNCFYKNNSEHNWFEQIETNCKYAEELIVLSDTDQRVKFTDFFPGSSGPFGEELAGKWYDYPQAKEMLKKHREDKMRLNEPAWTFWCDWHATF”, the “soluble on expression in E. coli” value was “not soluble”.
In the case of “MQTFEIKEEFLVDGKPTKLISGAIHYFRMTPAQWEDSLYNLKALGANTIETYIPWNLHEPVEGVYDFEGMKDIVAFVSLAQELGLMVILRPSVYICAEWEFGGLPAWLLKEHVRLRSTDPRFIAKVRTYFSVLLPKLVPLQVTHGGPVIMMQVENEYGSYGMEKEYLRQTKQVMEEFGIDVPLFTSDGAWEEVLDVGTLIEEDVFVTGNFGSHSKENATVMKAFMAKHDKKWPIMCMEYWDGWFNRWGEPIIKRDGQDLANEVKDMLALGSLNLYMFHGGTNFGFYNGCSARGVLDLPQVTSYDYDALLTEAGEPTEKYFHVQRAIKEVCPEVWQAEPRRKTFGSLGTFPVQNSVSLLAVKDQMMTAQETMYPITMEEAESGYGYMLYSVNLKNYHHENKLKVVEASDRLHLFADGSLQTIQYQENLREEVMIKGTPEKEWIELDVLVENLGRVNYGFKLNGPTQVKGIRGGIMQDIHFHQGYRQYALTLSADQLKKIDYTAGKNPAQPSFYQAEFTLTDLADTFIDCRSYGKGVVIVNGINLGRYWQRGPIHSLYCPKEFLKKGTNEIVIFETEGIEINELIFCGQPIVKKLLTNDFSEIGSNIHNHIDS”, the “soluble on expression in E. coli” value is reported as “not soluble”.
For “MKTKLDFLKMKESEEPIVMLTAYDYPAAKLAEQAGVDMILVGDSLGMVVLGLDSTVGVTVADMIHHTKAVKRGAPNTFIVTDMPFMSYHLSKEDTLKNAAAIVQESGADALKLEGGEGVFESIRALTLGGIPVVSHLGLTPQSVGVLGGYKVQGKDEQSAKKLIEDSIKCEEAGAMMLVLECVPAELTAKIAETLSIPVIGIGAGVKADGQVLVYHDIIGHGVERTPKFVKQYTRIDETIETAISGYVQDVRHRAFPEQKHSFQMNQTVLDGLYGGKLEHHHHHH”, the “soluble on expression in E. coli” value was “soluble”.
With “HHMDEEYDVIVLGTGLTECILSGIMSVNGKKVLHMDRNPYYGGESSSITPLEELYKRFQLLEGPPETMGRGRDWNVDLIPKFLMANGQLVKMLLYTEVTRYLDFKVVEGSFVYKGGKIYKVPSTETEALASNLMGMFEKRRFRKFLVFVANFDENDPKTFEGVDPQNTSMRDVYRKFDLGQDVIDFTGHALALYRTDDYLDQPCLETINRIKLYSESLARYGKSPYLYPLYGLGELPQGFARLSAIYGGTYMLNKPVDDIIMENGKVVGVKSEGEVARCKQLICDPSYVPDRVRKAGQVIRIICILSHPIKNTNDANSCQIIIPQNQVNRKSDIYVCMISYAHNVAAQGKYIAIASTTVETTDPEKEVEPALELLEPIDQKFVAISDLYEPIDDGSESQVFCSCSYDATTHFETTCNDIKDIYKRMAGSAFDFENMKRKQNDVFGEADQ” the “soluble on expression in E. coli” value was “soluble”.
In the case of “MGSDKIHHHHHHMALVRLSQIHFNFQTAAQPLFEDLNLTIAAGECHLIHGYTGCGKSTLLKLLQGILERPWEGEREIAEGATLGVVMQDPNVQLLRQTLGAEVAFALENLGVASSEMLLQVRSALRRVGLYISLDTPIASLSLGQRYRLMIAAQLVLEPDLLLLDEPWAQLDDQGVAELSAVLHQLKQQGVALLIVEHHRGVFKDLVTHRWQLSQGQLQALAPAECEATSEQVSWRESPAWPQGSAVIDSHGFTLAFRERQKLFDADSLLLFPGEIAALVGDNGCGKSTLLKSLAGIQADIDPLGIKVFGKKPKLGRFGADLALLHQRPSRQLFENTVIEEMQFSLKRFGLPLERAIELLGQLGLTTLARHSPHTLSYGQQHLIALASLACLRPKLLLLDDPFAGLDEHFTDKIVALLTELSRQGTALVIASHRPIAALPVDRLWRVVDGRLESLSASPQAYSRVG”, the “soluble on expression in E. coli” value is reported as “not soluble”.
In the case of “LFNYKPGTSVFSIATAGCNFKCKHCQNWEISQSLPEEVPFSELTPEDVVELAKNYLCEGIAYTYTEPTIFYEFMQETAKLAKKHDLFNVMVTNGYIEKEPLKKLEIDAMNIDIKGNSEFYKKICLAELEPVLETCRLAKKLGIHIEITNLVVPTYNDNPKYIESIINFVKDELGVDTPLHFTAFYPHYKLTSVPSTRMETIKKARDMALNAGLHYVYAGNV”, the “soluble on expression in E. coli” value is reported as “not soluble”.
